One block for each binder: values may come before it.
Tests used:
[1] = target: T1, human Trop-2 on the surface of cells (CHO/Trop-2 cells; BxPC-3 cells; NCI-N87 cells) (human, UniProt P09758 27-323); assay: cell-based or functional assay
T1 sequence (looked up): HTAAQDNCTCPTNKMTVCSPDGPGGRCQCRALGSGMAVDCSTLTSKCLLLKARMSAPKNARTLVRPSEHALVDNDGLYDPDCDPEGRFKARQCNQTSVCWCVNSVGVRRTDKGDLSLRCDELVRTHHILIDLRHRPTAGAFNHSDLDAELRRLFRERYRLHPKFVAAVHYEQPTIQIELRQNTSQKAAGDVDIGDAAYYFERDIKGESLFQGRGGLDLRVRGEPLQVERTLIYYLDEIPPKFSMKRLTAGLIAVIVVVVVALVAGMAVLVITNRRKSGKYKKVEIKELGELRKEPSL

[2] = target: T1, human Trop-2 on the surface of cells …; assay: cell-based or functional assay; remark: listed apart in the source
[3] = target: T1, human Trop-2 on the surface of cells …; assay: cell-based or functional assay; remark: listed apart in the source
[4] = target: T2, recombinant human Trop-2-his protein (ACCESSION NO.: NP_002344.2, AA 1-274) (human, UniProt P09758 27-274); assay: BLI, SN38-labeled antibody on AHC sensor, Trop-2-his 60 nM, 300 s binding
T2 construct: range 27-274; also called recombinant human Trop-2 protein; recombinant human Trop-2 extracellular domain; not shown: his tag
T2 sequence (looked up): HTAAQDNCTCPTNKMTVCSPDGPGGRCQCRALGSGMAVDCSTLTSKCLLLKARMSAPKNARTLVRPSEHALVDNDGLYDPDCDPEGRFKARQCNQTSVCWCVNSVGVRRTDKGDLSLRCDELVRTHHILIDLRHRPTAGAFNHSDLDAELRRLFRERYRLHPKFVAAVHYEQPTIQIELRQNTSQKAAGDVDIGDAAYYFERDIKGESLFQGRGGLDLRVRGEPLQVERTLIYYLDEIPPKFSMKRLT
Description: (§1) Affinities of the antibodies were determined by an assay including capturing Fc fragments of the antibodies with anti-human IgG Fc capture (AHC) biosensors using Octet QKe system instrument from Fortebio.
(§2) For the assay, SN38-labeled antibodies prepared as described above: h23-12-SN38, ch4-3-SN38, ch11-4-SN38, and positive control antibody Sacituzumab-SN38, as well as naked antibodies h23-12, ch4-3, ch11-4, and positive control antibody Sacituzumab were diluted to 4 μg/ml with PBS and allowed to flow through the surface of an AHC biosensor (Cat.: 18-0015, PALL) for 120 s. Recombinant human Trop-2-his protein (ACCESSION NO.: NP_002344.2, AA 1-274) was used as a mobile phase, and its concentration was 60 nM. The binding time was 300 s and the dissociation time was 300 s. When the assay was finished, data from which the response value of blank control had been deducted were fitted to a 1:1 Langmuir binding model using software, and then kinetic constants for antigen-antibody binding were calculated.

[5] = target: T1, human Trop-2 on the surface of cells …; assay: FACS, CHO/Trop-2 cells
Description: Suspensions of CHO cells recombinantly expressing human Trop-2 (CHO/Trop-2 cells) were incubated with chimeric antibodies ch3-11, ch4-3, ch17-1, ch11-4, and ch23-12 (dilutions at concentrations of 30 μg/ml and 10 μg/ml, and serial dilutions of 9 concentrations obtained through 3-fold serially diluting a solution with an initial concentration of 5 μg/ml, 11 concentrations in total) for 30 min at 37° C. Controls as follows were set: (1) Positive Control (PC): control antibody Sacituzumab; (2) Negative Control (NC): IgG1 isotype control antibody NC-IgG1. The cells were washed 3 times with PBS, and 1:100 dilution of goat anti-human IgG-FITC (Cat.: F9512, Sigma) was added into the cell which then were incubated for 30 min. Then the cells were washed 3 times with PBS again, and the Mean Fluorescence Intensity (MFI) of the cells was measured by a flow cytometer (model B49007AD, SNAW31211, BECKMAN COULTER) to detect binding ability of the chimeric antibodies to human Trop-2 on the surface of CHO cells.

[6] = target: T1, human Trop-2 on the surface of cells …; assay: cell-based or functional assay; remark: listed apart in the source
[7] = target: T2, recombinant human Trop-2-his protein …; assay: ELISA, coated Trop-2-his 0.2 µg/ml
Description: Plates were coated with recombinant human Trop-2-his protein (ACCESSION NO.: NP_002344.2, AA 1-274) at a concentration of 0.2 μg/ml overnight at 4° C. and then blocked with 5% BSA for 60 min in a constant temperature incubator at 37° C. Chimeric antibodies ch3-11, ch4-3, ch17-1, ch11-4, and ch23-12 and control antibody Sacituzumab (serial dilutions of 8 concentrations in total obtained through 3-fold serially diluting a solution with an initial concentration of 2 μg/ml) were added into the plates which were then incubated in a constant temperature incubator at 37° C. for 60 min. The plates were washed with PBST 4 times, and 1:5000 dilution of HRP-anti-human Fc (Cat.: 109-035-098, Jackson ImmunoResearch) was added into the plates for reaction for 45 min. TMB (Cat.: ME142, GalaxyBio, Beijing) substrate was added for color development for 15 min, and then 2M HCl was added to stop reaction. Absorbances at 450 nm and at 630 nm (as reference wavelength) were read, and A450 nm-630 nm values of the wells in the plates were recorded.

[8] = target: T2, recombinant human Trop-2-his protein …; assay: BLI, antibody on AHC sensor, Trop-2-his 60 nM
Description: (§3) 5-6 days after cell transfection, culture supernatants were purified through ProA affinity chromatography column to obtain different humanized antibodies. Affinities of the obtained antibodies were determined by an assay including capturing Fc fragments of the antibodies with anti-human IgG Fc capture (AHC) biosensors using Octet QKe system instrument from Fortebio. For the assay, each of the humanized antibodies and control antibody Sacituzumab was diluted to 4 μg/ml in PBS, and was allowed to flow through the surface of an AHC biosensor (Cat.: 18-0015, PALL) for 120 s. Recombinant human Trop-2-his protein (ACCESSION NO.: NP_002344.2, AA 1-274) was used as a mobile phase, and its concentration was 60 nM. The binding time was 100 s and the dissociation time was 300 s. When the assay was finished, data from which the response values of blank control had been deducted were fitted to a 1:1 Langmuir binding model using software, and then kinetic constants for antigen-antibody binding were calculated.
Affinities of the antibodies obtained from the combinations of mutants of murine antibody 11-4, chimeric antibody ch11-4 and control antibody Sacituzumab to recombinant human Trop-2-his protein were determined by ForteBio (Table 11).

[9] = target: T2, recombinant human Trop-2-his protein …; assay: BLI, naked antibody on AHC sensor, Trop-2-his 60 nM, 300 s binding
Description: as §1, §2

[10] = target: T2, recombinant human Trop-2-his protein …; assay: BLI, antibody on AHC sensor, Trop-2-his 60 nM; remark: listed apart in the source
Description: as §3
Affinities of the antibodies obtained from the combinations of mutants of murine antibody 23-12, chimeric antibody ch23-12 and control antibody Sacituzumab to recombinant human Trop-2-his protein were determined by ForteBijo (Table 5).

[11] = target: T2, recombinant human Trop-2-his protein …; assay: BLI, antibody on AHC sensor, Trop-2-his 60 nM; remark: listed apart in the source
Description: as §3
Affinities of the antibodies obtained from the combinations of mutants of murine antibody 23-12, chimeric antibody ch4-3 and control antibody Sacituzumab to recombinant human Trop-2-his protein were determined by ForteBio (Table 8).

Internalization percentage, 1 h, NCI-N87 cells, FACS [1]: 51.1%
Internalization percentage, 1 h, BXPC-3 cells, FACS [2]: 20.1%
IC50 (µg/ml), inhibitory activity of anti-Trop-2 ADCs on cell growth, BxPC-3 cells [3]: 1.41 µg/mL
Kd [4]: 0.441 nM
B1: h23-12-SN38 (antibody, human IgG1, kappa, V domains shown)
VH: QVQLVQSGAEVKKPGASVKVSCKASGYTFTSYWMHWVRQAPGQGLEWMGEITPSDNYGSYNQKFKGRVTITRDTSTSTAYMELSSLRSEDTAVYYCARGHGNYVSFDYWGQGTLVTVSS
VL: DIQMTQSPSSLSASVGDRVTITCRASQDISNYLNWYQQKPGKAPKLLIYYTSRLESGVPSRFSGSGSGTDFTLTISSLQPEDFATYFCQQGYTLPPYTFGQGTKLEIKR
modifications: CL2A-SN-38 conjugated to the DTT-reduced antibody; 7.5 SN38 per antibody; sites not stated
notes: also called h23-12 labeled with SN38

EC50 [5]: 0.993 nM
Internalization percentage (%), 1 h, BxPC-3 cells, FACS [6]: 1.12%
Internalization percentage (%), 3 h, BxPC-3 cells, FACS [6]: -5.13%
Internalization percentage (%), 5 h, BxPC-3 cells, FACS [6]: -8.48%
EC50 [7]: 0.315 nM
B2: chimeric antibody ch3-11 (antibody, human IgG1, V domains shown)
VH: QVQLQQPGAELVKPGSSVKLSCKASGYTFTSYWMYWVKQRPGQGLEWIGEINPSNGRTNYNEKFKSKATLTVDKSSSTAYMQFSSLTSEDSAVYYCTREGHNYDGSLGAMDHWGQGTSVTVSS
VL: DVVVTQTPLSLPVSFGDQVSISCRSSQSLTNSYGNTFLSWYLHKPGQSPQLLLYGISNRFSGVPDRFSGSGSGTDFTLKINTIKPEDLGMYYCFQSTHQPYTFGGGTKLEIK

EC50 [5]: 1.15 nM
Internalization percentage (%), 1 h, BxPC-3 cells, FACS [6]: -2%
Internalization percentage (%), 3 h, BxPC-3 cells, FACS [6]: -7.4%
Internalization percentage (%), 5 h, BxPC-3 cells, FACS [6]: -9.38%
Internalization percentage, 1 h, BXPC-3 cells, FACS [2]: 15.5%
EC50 [7]: 0.237 nM
Kd [8]: 0.264 nM
Kd [9]: 0.176 nM
B3: chimeric antibody ch11-4 (antibody, human IgG1, V domains shown)
VH: QVQLQQPGAELVRPGASVNLSCKASGYTFTSYWINWVKQRPGQGLEWIGNIYPSNSYTNYNQKFKDTATLTVDKSSSTAYMQLSSPTSEDSAVYFCSSYRSDGFAYWGQGTLVTVSA
VL: DILLTQSPAILSVSPGEKVSFSCRASQNIGTSIHWYQQRTNGSPRLLIEFASESISGIPSRFSGSGSGTDFTLTINSVESEDIADYYCQQSNSWPFTFGGGTKLEIK

Internalization percentage, 1 h, BXPC-3 cells, FACS [2]: 51.1%
IC50 (µg/ml), inhibitory activity of anti-Trop-2 ADCs on cell growth, BxPC-3 cells [3]: 2.88 µg/mL
Kd [4]: 0.0734 nM
B4: ch11-4-SN38 (antibody, V domains shown)
VH: B3 VH
VL: B3 VL
modifications: CL2A-SN-38 conjugated to the DTT-reduced antibody; 7.5 SN38 per antibody; sites not stated
notes: also called ch11-4 labeled with SN38

EC50 [5]: 2.75 nM
Internalization percentage (%), 1 h, BxPC-3 cells, FACS [6]: 16.2%
Internalization percentage (%), 3 h, BxPC-3 cells, FACS [6]: 21.1%
Internalization percentage (%), 5 h, BxPC-3 cells, FACS [6]: 27.1%
EC50 [7]: 0.458 nM
Kd [10]: 0.715 nM
B5: chimeric antibody ch23-12 (antibody, human IgG1, V domains shown)
VH: QVQLQQPGAELVKPGASVKLSCKADGYIFTSYWMHWVKQRPGQGLEWIGEITPSDNYTSYNQKFKGKATLTVDKSSSTAYMQLSSLTSEDSAVYYCTRGHGNYVSFDYWGQGTTLTVSS
VL: DIQMTQITSSLSASLGDRVTITCRASQDISNYLNWYQQKPDGTVKLLIYYTSRLHSGVPSRFSGSGSGTDYSLTISNLEQEDIATYFCQQGYTLPPYTFGGGTKLEIK

EC50 [5]: 3.33 nM
Internalization percentage (%), 1 h, BxPC-3 cells, FACS [6]: 17.1%
Internalization percentage (%), 3 h, BxPC-3 cells, FACS [6]: 23.1%
Internalization percentage (%), 5 h, BxPC-3 cells, FACS [6]: 28.1%
Internalization percentage, 1 h, NCI-N87 cells, FACS [1]: 50.2%
Internalization percentage, 1 h, BXPC-3 cells, FACS [2]: 30.7%
EC50 [7]: 0.32 nM
Kd [11]: 0.3 nM
Kd [9]: 0.323 nM
B6: chimeric antibody ch4-3 (antibody, human IgG1, V domains shown)
VH: QVQLQQSGPELVKPGASVKMSCKASGFTFTDYVIGWVKQRTGQGLEWIGEIYLGSGTIYYTEKFKGKATLTADTSSNTAYMQLSSLTSEDSAVYFCARGSIFPFDYWGQGTTLTVSS
VL: QIVLTQSPAIMSASPGEKVTMTCSASSSVSYMYWYQQKPGSSPRLLIYDTSTLASGVPVRFSGSGSGTSYSLTISRMEAEDAATYYCQQWSSYPYTFGGGTKLEIK
